Measured values as given in PMC6555819, “Comprehensive study of nuclear receptor DNA binding provides a revised framework for understanding receptor specificity”.
Changes are numbered by the printed parent chain.

B1: NRC3_wobSeed28_DR1_C12T_o1 (dsDNA)
DNA 1: GCCCTACTGGGTCAAAGGTCATTGATTCCAATGCTCGCGATTGACAGCGTAGAATGAAGG
DNA 2: CCTTCATTCTACGCTGTCAATCGCGAGCATTGGAATCAATGACCTTTGACCCAGTAGGGC
B2: NRC3_wobSeed46_DR1_G13C_o1 (dsDNA)
DNA 1: GCTTACCAAGGTCAAAGGTCGTTGATGCACGCCTTGGCGATTGACAGCGTAGAATGAAGG
DNA 2: CCTTCATTCTACGCTGTCAATCGCCAAGGCGTGCATCAACGACCTTTGACCTTGGTAAGC
B3: NRC3_wobSeed45_DR1_A20T_o1 (dsDNA)
DNA 1: GCTGTCAAAGTTCAAAGGTTACGTAAGTATCCACACGCGATTGACAGCGTAGAATGAAGG
DNA 2: CCTTCATTCTACGCTGTCAATCGCGTGTGGATACTTACGTAACCTTTGAACTTTGACAGC
B4: NRC3_wobSeed45_DR1_T11G_o1 (dsDNA)
DNA 1: B3 DNA 1 with T11G, T20A
DNA 2: B3 DNA 2 with A41T, A50C
B5: NRC3_wobSeed53_DR2_C8G_o1 (dsDNA)
DNA 1: GCCCTTAGGGGTCACGAGGTTATAGCACGACGAGCGGCGATTGACAGCGTAGAATGAAGG
DNA 2: CCTTCATTCTACGCTGTCAATCGCCGCTCGTCGTGCTATAACCTCGTGACCCCTAAGGGC
B6: NRC3_wobSeed26_DR1_T9A_o1 (dsDNA)
DNA 1: GCTCTAGTAGGTCAAAGGTCACACACTCGAAATGCGGCGATTGACAGCGTAGAATGAAGG
DNA 2: CCTTCATTCTACGCTGTCAATCGCCGCATTTCGAGTGTGTGACCTTTGACCTACTAGAGC
B7: NRC3_wobSeed26_DR1_T9G_o1 (dsDNA)
DNA 1: B6 DNA 1 with A9G
DNA 2: B6 DNA 2 with T52C
B8: NRC3_wobSeed42_DR1_A8G_o1 (dsDNA)
DNA 1: GCTATACGGGGTCAAAGGCCAGAGTACGAATGTCGAGCGATTGACAGCGTAGAATGAAGG
DNA 2: CCTTCATTCTACGCTGTCAATCGCTCGACATTCGTACTCTGGCCTTTGACCCCGTATAGC
B9: NRC3_wobSeed34_DR1_G14A_o1 (dsDNA)
DNA 1: GCATCGAAAGGTCAAAGGTGAGTATACCCACCCGAAGCGATTGACAGCGTAGAATGAAGG
DNA 2: CCTTCATTCTACGCTGTCAATCGCTTCGGGTGGGTATACTCACCTTTGACCTTTCGATGC
B10: NRC3_wobSeed109_DR4_T26A_o1 (dsDNA)
DNA 1: GCCGTCCAAGGTCATAGGAGGTCAGAGAAGACAGATGCGATTGACAGCGTAGAATGAAGG
DNA 2: CCTTCATTCTACGCTGTCAATCGCATCTGTCTTCTCTGACCTCCTATGACCTTGGACGGC
B11: NRC3_wobSeed117_DR4_A15C_o1 (dsDNA)
DNA 1: GCCGTCAAAGTTCACCTAAGGTAACGTAAAGCACGCGCGATTGACAGCGTAGAATGAAGG
DNA 2: CCTTCATTCTACGCTGTCAATCGCGCGTGCTTTACGTTACCTTAGGTGAACTTTGACGGC
B12: NRC3_wobSeed106_DR4_G15T_o1 (dsDNA)
DNA 1: GCCTCGAAAGGTCGTTTGAGGTGAGTATACGGATAAGCGATTGACAGCGTAGAATGAAGG
DNA 2: CCTTCATTCTACGCTGTCAATCGCTTATCCGTATACTCACCTCAAACGACCTTTCGAGGC
B13: NRC3_wobSeed103_DR4_A13C_o1 (dsDNA)
DNA 1: GCGCATATAGGTCATACAAGGTGAAAGTCCGATTGTGCGATTGACAGCGTAGAATGAAGG
DNA 2: CCTTCATTCTACGCTGTCAATCGCACAATCGGACTTTCACCTTGTATGACCTATATGCGC
B14: NRC3_wobSeed97_DR4_A17T_o1 (dsDNA)
DNA 1: GCCAAACTAGGTCACGTAAGGTCAAAGTCGAATGACGCGATTGACAGCGTAGAATGAAGG
DNA 2: CCTTCATTCTACGCTGTCAATCGCGTCATTCGACTTTGACCTTACGTGACCTAGTTTGGC
B15: NRC3_wobSeed97_DR4_A17C_o1 (dsDNA)
DNA 1: B14 DNA 1 with T17C
DNA 2: B14 DNA 2 with A44G
B16: NRC3_wobSeed98_DR4_G15A_o1 (dsDNA)
DNA 1: GCACTAGTTGGTCAACTGAGGTCACACACAATTCGGGCGATTGACAGCGTAGAATGAAGG
DNA 2: CCTTCATTCTACGCTGTCAATCGCCCGAATTGTGTGTGACCTCAGTTGACCAACTAGTGC

Each binder was assayed against PPARg:RXRa (Homo sapiens, UniProt P37231;P19793 full;full) (assay: no ligand; PBM; 180 nM : 90 nM RXRa; PBS pH 7.4, 2% milk, 0.02% Triton X-100, 1 mM DTT, BSA, 0.4 mg/ml salmon testes DNA). Conditions: tags: His kept;His cleaved; copies: 1;1; label: surface-attached array probe.

Binder	binding signal
B1	13.5 PBM z-score against 500 random probes
B2	10.5 PBM z-score against 500 random probes
B3	9.98 PBM z-score against 500 random probes
B4	12.1 PBM z-score against 500 random probes
B5	10.3 PBM z-score against 500 random probes
B6	14.4 PBM z-score against 500 random probes
B7	13.8 PBM z-score against 500 random probes
B8	10.7 PBM z-score against 500 random probes
B9	10 PBM z-score against 500 random probes

These binders were tested against THRa:RXRa (Homo sapiens, UniProt P10827;P19793 full;full) (assay: no ligand; PBM; 90 nM : 90 nM RXRa; PBS pH 7.4, 2% milk, 0.02% Triton X-100, 1 mM DTT, BSA, 0.4 mg/ml salmon testes DNA). Conditions: tags: His kept;His cleaved; copies: 1;1; label: surface-attached array probe.
Sequence of THRa:RXRa (P10827 other isoform, or with tags, fused parts or gaps, chain 1 of 2): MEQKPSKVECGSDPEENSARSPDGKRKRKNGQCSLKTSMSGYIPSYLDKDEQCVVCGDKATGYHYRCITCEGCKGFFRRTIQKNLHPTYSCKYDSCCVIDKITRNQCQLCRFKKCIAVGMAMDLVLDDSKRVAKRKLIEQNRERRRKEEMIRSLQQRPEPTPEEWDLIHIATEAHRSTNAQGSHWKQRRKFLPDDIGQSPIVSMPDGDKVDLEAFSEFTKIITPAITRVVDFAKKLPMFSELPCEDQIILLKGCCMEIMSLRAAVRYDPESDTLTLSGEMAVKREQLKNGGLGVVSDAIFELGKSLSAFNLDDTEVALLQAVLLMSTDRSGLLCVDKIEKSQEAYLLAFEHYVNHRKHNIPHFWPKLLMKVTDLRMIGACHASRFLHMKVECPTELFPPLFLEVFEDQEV
Sequence of THRa:RXRa (P19793 whole entry, chain 2 of 2): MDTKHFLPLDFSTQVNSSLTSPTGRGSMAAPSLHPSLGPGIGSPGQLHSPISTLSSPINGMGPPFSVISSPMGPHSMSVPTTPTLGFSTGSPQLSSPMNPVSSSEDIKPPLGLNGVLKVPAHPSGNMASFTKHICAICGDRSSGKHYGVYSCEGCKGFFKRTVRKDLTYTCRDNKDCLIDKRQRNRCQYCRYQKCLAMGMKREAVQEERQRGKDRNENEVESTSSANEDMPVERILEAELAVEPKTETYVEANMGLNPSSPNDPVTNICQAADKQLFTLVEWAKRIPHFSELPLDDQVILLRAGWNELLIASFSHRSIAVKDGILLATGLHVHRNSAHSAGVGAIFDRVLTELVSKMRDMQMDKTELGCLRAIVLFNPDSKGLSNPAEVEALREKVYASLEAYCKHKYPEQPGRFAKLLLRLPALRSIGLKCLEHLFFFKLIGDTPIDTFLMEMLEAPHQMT

Binder	binding signal
B10	5.62 PBM z-score against 500 random probes
B11	5.54 PBM z-score against 500 random probes
B12	5.63 PBM z-score against 500 random probes
B13	5.57 PBM z-score against 500 random probes
B14	5.77 PBM z-score against 500 random probes
B15	5.55 PBM z-score against 500 random probes
B16	5.62 PBM z-score against 500 random probes

What follows are binders tested against RXRa (Homo sapiens, UniProt P19793) (assay: no ligand; PBM; 180 nM; PBS pH 7.4, 2% milk, 0.02% Triton X-100, 1 mM DTT, BSA, 0.4 mg/ml salmon testes DNA). Conditions: tags: His cleaved; chain copies: 2; label: surface-attached array probe.
Sequence of RXRa (P19793 whole entry): as the sequence (P19793 whole entry, chain 2 of 2) above

Binder	binding signal
B1	9.56 PBM z-score against 500 random probes
B2	9.65 PBM z-score against 500 random probes
B3	9.74 PBM z-score against 500 random probes
B4	10.1 PBM z-score against 500 random probes
B5	10.1 PBM z-score against 500 random probes
B6	10.5 PBM z-score against 500 random probes
B7	10.2 PBM z-score against 500 random probes
B8	9.41 PBM z-score against 500 random probes
B9	10.1 PBM z-score against 500 random probes

Each binder was assayed against PPARa:RXRa (Homo sapiens, UniProt Q07869;P19793 full;full) (assay: no ligand; PBM; 270 nM : 90 nM RXRa; PBS pH 7.4, 2% milk, 0.02% Triton X-100, 1 mM DTT, BSA, 0.4 mg/ml salmon testes DNA). Conditions: tags: GST kept;His cleaved; copies: 1;1; label: surface-attached array probe.
Outline: (§1)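 On custom Agilent 4×180K arrays, double-stranded probes with 34-nt variable regions carried direct-repeat seeds, single-nucleotide variants, half-site ablations or random human genomic background. Ligand-free nuclear receptor dimers were applied for 1 h, and binding was read with antibodies against each partner (one per run). Binding z-scores come from regression-normalized fluorescence, with the random background probes as reference.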

Binder	binding signal
B1	7.41 PBM z-score against 500 random probes
B2	6.85 PBM z-score against 500 random probes
B3	6.95 PBM z-score against 500 random probes
B4	7.31 PBM z-score against 500 random probes
B5	7.21 PBM z-score against 500 random probes
B6	7.46 PBM z-score against 500 random probes
B7	7.42 PBM z-score against 500 random probes
B8	7.07 PBM z-score against 500 random probes
B9	7.53 PBM z-score against 500 random probes

Each binder was assayed against LXRb:RXRa (Homo sapiens, UniProt P55055;P19793 full;full) in the same assay as above. Conditions: tags: His kept;His cleaved; copies: 1;1; label: surface-attached array probe.
Outline: as §1

Binder	binding signal
B1	6.34 PBM z-score against 500 random probes
B2	6.04 PBM z-score against 500 random probes
B3	5.93 PBM z-score against 500 random probes
B4	6.94 PBM z-score against 500 random probes
B5	6.15 PBM z-score against 500 random probes
B6	6.9 PBM z-score against 500 random probes
B7	6.79 PBM z-score against 500 random probes
B8	7.1 PBM z-score against 500 random probes
B9	6.85 PBM z-score against 500 random probes

Each binder was assayed against RARa:RXRa (Homo sapiens, UniProt P10276;P19793 full;full) in the same assay as above. Conditions: tags: His kept;His cleaved; copies: 1;1; label: surface-attached array probe.
Outline: as §1

Sequence of RARa:RXRa (P10276 whole entry, chain 1 of 2): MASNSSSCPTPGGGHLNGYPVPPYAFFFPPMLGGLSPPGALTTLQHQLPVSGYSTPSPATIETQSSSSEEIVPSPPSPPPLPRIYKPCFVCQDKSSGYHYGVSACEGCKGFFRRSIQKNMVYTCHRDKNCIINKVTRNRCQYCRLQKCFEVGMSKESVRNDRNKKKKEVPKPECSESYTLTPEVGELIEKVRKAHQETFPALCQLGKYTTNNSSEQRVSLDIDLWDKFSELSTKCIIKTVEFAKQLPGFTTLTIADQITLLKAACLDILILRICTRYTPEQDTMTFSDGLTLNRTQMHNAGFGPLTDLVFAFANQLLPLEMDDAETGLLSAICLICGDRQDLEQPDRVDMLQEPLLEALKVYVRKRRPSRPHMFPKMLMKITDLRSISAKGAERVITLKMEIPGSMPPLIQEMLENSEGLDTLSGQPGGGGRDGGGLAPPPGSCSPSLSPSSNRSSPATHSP
Sequence of RARa:RXRa (P19793 whole entry, chain 2 of 2): as the sequence (P19793 whole entry, chain 2 of 2) above

Binder	binding signal
B1	8.75 PBM z-score against 500 random probes
B2	8.61 PBM z-score against 500 random probes
B3	8.47 PBM z-score against 500 random probes
B4	8.2 PBM z-score against 500 random probes
B5	8.32 PBM z-score against 500 random probes
B6	9.28 PBM z-score against 500 random probes
B7	8.89 PBM z-score against 500 random probes
B8	7.79 PBM z-score against 500 random probes
B9	8.66 PBM z-score against 500 random probes

The binders below were run against RARb:RXRa (Homo sapiens, UniProt P10826;P19793 full;full) in the same assay as above. Conditions: tags: His kept;His cleaved; copies: 1;1; label: surface-attached array probe.
Outline: as §1

Sequence of RARb:RXRa (P10826 whole entry, chain 1 of 2): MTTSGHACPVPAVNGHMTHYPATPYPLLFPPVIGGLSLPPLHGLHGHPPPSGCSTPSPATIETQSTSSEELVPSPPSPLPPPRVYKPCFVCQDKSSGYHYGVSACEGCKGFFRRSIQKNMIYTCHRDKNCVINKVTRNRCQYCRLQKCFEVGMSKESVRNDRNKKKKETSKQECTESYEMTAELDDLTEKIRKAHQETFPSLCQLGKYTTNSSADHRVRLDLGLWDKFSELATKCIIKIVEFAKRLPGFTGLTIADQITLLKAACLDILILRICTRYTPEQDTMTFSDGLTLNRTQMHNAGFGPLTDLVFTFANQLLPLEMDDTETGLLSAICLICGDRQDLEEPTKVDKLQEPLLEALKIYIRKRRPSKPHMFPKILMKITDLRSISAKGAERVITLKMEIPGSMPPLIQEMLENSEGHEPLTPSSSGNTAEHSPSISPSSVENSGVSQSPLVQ
Sequence of RARb:RXRa (P19793 whole entry, chain 2 of 2): as the sequence (P19793 whole entry, chain 2 of 2) above

Binder	binding signal
B1	5.54 PBM z-score against 500 random probes
B2	5.44 PBM z-score against 500 random probes
B3	5.55 PBM z-score against 500 random probes
B4	6.49 PBM z-score against 500 random probes
B5	5.93 PBM z-score against 500 random probes
B6	5.79 PBM z-score against 500 random probes
B7	5.62 PBM z-score against 500 random probes
B9	6.19 PBM z-score against 500 random probes

These binders were tested against PXR:RXRa (Homo sapiens, UniProt O75469;P19793 full;full) in the same assay as above. Conditions: tags: His kept;His cleaved; copies: 1;1; label: surface-attached array probe.
Outline: as §1

Binder	binding signal
B1	7.26 PBM z-score against 500 random probes
B2	7 PBM z-score against 500 random probes
B3	6.87 PBM z-score against 500 random probes
B4	6.66 PBM z-score against 500 random probes
B5	6.73 PBM z-score against 500 random probes
B6	7.41 PBM z-score against 500 random probes
B7	6.94 PBM z-score against 500 random probes
B8	6.54 PBM z-score against 500 random probes
B9	6.57 PBM z-score against 500 random probes

These binders were tested against VDR:RXRa (Homo sapiens, UniProt P11473;P19793 full;full) in the same assay as above. Conditions: tags: His kept;His cleaved; copies: 1;1; label: surface-attached array probe.
Outline: as §1

Sequence of VDR:RXRa (P11473 whole entry, chain 1 of 2): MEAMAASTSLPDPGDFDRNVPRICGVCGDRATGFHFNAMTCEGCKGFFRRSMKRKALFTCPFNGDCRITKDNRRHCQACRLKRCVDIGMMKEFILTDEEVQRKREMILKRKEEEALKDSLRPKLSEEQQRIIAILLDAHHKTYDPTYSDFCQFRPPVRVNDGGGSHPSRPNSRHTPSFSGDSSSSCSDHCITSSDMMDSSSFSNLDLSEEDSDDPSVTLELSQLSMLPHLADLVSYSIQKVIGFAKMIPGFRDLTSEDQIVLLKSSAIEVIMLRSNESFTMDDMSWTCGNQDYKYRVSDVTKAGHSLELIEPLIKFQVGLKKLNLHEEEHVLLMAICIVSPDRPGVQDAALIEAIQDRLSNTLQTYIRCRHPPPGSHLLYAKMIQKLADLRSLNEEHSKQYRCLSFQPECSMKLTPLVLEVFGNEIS
Sequence of VDR:RXRa (P19793 whole entry, chain 2 of 2): as the sequence (P19793 whole entry, chain 2 of 2) above

Binder	binding signal
B1	6.8 PBM z-score against 500 random probes
B5	7.15 PBM z-score against 500 random probes
B6	6.79 PBM z-score against 500 random probes
B7	7 PBM z-score against 500 random probes
B8	6.76 PBM z-score against 500 random probes

Each binder was assayed against FXR:RXRa (Homo sapiens, UniProt Q96RI1;P19793 full;full) in the same assay as above. Conditions: tags: His kept;His cleaved; copies: 1;1; label: surface-attached array probe.
Outline: as §1

Binder	binding signal
B2	8.17 PBM z-score against 500 random probes
B4	9.11 PBM z-score against 500 random probes
B5	8.88 PBM z-score against 500 random probes
B6	8.25 PBM z-score against 500 random probes
B8	8.52 PBM z-score against 500 random probes
B9	8.87 PBM z-score against 500 random probes

Each binder was assayed against LXRa:RXRa (Homo sapiens, UniProt Q13133;P19793 full;full) in the same assay as above. Conditions: tags: His kept;His cleaved; copies: 1;1; label: surface-attached array probe.
Outline: as §1

Sequence of LXRa:RXRa (Q13133 whole entry, chain 1 of 2): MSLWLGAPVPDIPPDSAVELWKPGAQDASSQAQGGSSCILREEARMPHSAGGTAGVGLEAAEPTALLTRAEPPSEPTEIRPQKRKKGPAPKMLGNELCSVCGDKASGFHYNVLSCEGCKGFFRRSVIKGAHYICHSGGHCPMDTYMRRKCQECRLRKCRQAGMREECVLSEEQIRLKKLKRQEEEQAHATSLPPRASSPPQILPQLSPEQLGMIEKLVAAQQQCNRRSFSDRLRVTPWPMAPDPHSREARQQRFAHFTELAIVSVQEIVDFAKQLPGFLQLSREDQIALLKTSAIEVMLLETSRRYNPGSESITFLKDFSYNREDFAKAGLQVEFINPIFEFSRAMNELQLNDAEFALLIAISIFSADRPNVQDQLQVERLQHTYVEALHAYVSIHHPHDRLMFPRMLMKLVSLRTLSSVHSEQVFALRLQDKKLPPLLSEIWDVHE
Sequence of LXRa:RXRa (P19793 whole entry, chain 2 of 2): as the sequence (P19793 whole entry, chain 2 of 2) above

Binder	binding signal
B1	6.6 PBM z-score against 500 random probes
B2	7.04 PBM z-score against 500 random probes
B3	7.17 PBM z-score against 500 random probes
B4	7.81 PBM z-score against 500 random probes
B5	7.02 PBM z-score against 500 random probes
B6	7.19 PBM z-score against 500 random probes
B7	6.72 PBM z-score against 500 random probes
B8	7.28 PBM z-score against 500 random probes
B9	7.65 PBM z-score against 500 random probes

Each binder was assayed against RARg:RXRa (Homo sapiens, UniProt P13631;P19793 full;full) in the same assay as above. Conditions: tags: His kept;His cleaved; copies: 1;1; label: surface-attached array probe.
Outline: as §1

Binder	binding signal
B1	8.01 PBM z-score against 500 random probes
B2	7.78 PBM z-score against 500 random probes
B3	7.83 PBM z-score against 500 random probes
B4	8.53 PBM z-score against 500 random probes
B5	8.51 PBM z-score against 500 random probes
B6	8.88 PBM z-score against 500 random probes
B7	8.6 PBM z-score against 500 random probes
B8	7.59 PBM z-score against 500 random probes
B9	8.43 PBM z-score against 500 random probes
